Reference: US5726017
pKd: −log10 of the molar value.

Experiments:
[1] = target: GST-gag (HIV-1 gag polyprotein, strain LAI) (HIV-1 (LAI)) (UniProt P03348); test: filter; details: for pKd: 5 mM MgCl2, 37 C
[2] = target: GST-gag (HIV-1 gag polyprotein, strain LAI) (HIV-1 (LAI)) (UniProt P03348); test: competition; details: 1 nM gag, scale: fold excess unlabeled Psi for 50% competition
[3] = system: glutathione S-transferase (GST); test: filter; details: GST alone, low affinity
[4] = 50 mM Tris pH 7.5, 140 mM KCl, 5 mM NaCl

“HIV-1 Psi RNA (456 nt, transcribed from XhoI-linearized pBsPVR789)” showed a binding signal (% bound at 10 nM gag) ([1]; 13.4% at 0.1 nM, 14.7% without gag, positive control) of 87, a pKd ([1]; SELEX A experiment, 50 mM Tris pH 7.5, 200 mM KOAc) of 8.96 and a pKd ([1]; SELEX B experiment, 50 mM Tris pH 7.5, 140 mM KCl, 5 mM NaCl) of 8.28. The fold excess of unlabeled Psi for 50% competition ([2]; 150 pM labeled Psi) was 20.
In the case of “GGGAAAAGCGAAUCAUACACAAGANNNNNNNNNNNNNNNNNNNNNNNNNNNNNNNNNNNNNNNNNNNNNNNNNNGCUCCGCCAGAGACCAACCGAGAA [SELEX B round 4 RNA pool]”, the pKd [1, 4] was 8.07 and the fold excess of unlabeled Psi for 50% competition ([2]; 150 pM labeled pool) was 74.
“GGGAGACAAGAAUAAACGCUCAANNNNNNNNNNNNNNNNNNNNNNNNNNNNNNNNNNNNNNNNNNNNNNNNNNUUCGACAGGAGGCUCACAACAGGC [SELEX A round 0 RNA pool]” gave a binding signal (% bound at 10 nM gag) ([1]; 4.0% at 0.1 nM, 6.0% without gag, negative control) of 3.5.
For random RNA, the pKd [3] was under 5.00.
“GGGAGACAAGAAUAAACGCUCAANNNNNNNNNNNNNNNNNNNNNNNNNNNNNNNNNNNNNNNNNNNNNNNNNNUUCGACAGGAGGCUCACAACAGGC [SELEX A round 10 RNA pool]” showed a pKd ([1]; 50 mM Tris pH 7.5, 200 mM KOAc, 10000-fold tRNA) of 8.82.
Work on “GGGAAAAGCGAAUCAUACACAAGANNNNNNNNNNNNNNNNNNNNNNNNNNNNNNNNNNNNNNNNNNNNNNNNNNGCUCCGCCAGAGACCAACCGAGAA [SELEX B round 8 RNA pool]” yielded a pKd [1, 4] of 8.96 and a fold excess of unlabeled Psi for 50% competition ([2]; 150 pM labeled pool) of 630.
“GGGAGACAAGAAUAAACGCUCAAUCUCGUAUCAGCACACCGGUACAAAGAGGAUGCAAAUNCGCCUGUGACUUCGACAGGAGGCUCACAACAGGC [SW10.12]” was tested, and the binding signal (% bound at 10 nM gag) ([1]; 0.6% at 0.1 nM, 0.6% without gag) was 11.2.
“GGGAAAAGCGAAUCAUACACAAGANNNNNNNNNNNNNNNNNNNNNNNNNNNNNNNNNNNNNNNNNNNNNNNNNNGCUCCGCCAGAGACCAACCGAGAA [SELEX B round 0 RNA pool]” showed a pKd [1, 4] of 6.00.
